Tests used:
Experiment in all cases: ELISA cross-reactivity of M048-D01 Fab
Conditions in all cases: Fab 1 μg/ml, TRAIL-Fc wells as background
hFGFR1β-Fc (IIIb) = format: binding, Human
Experimental: (§1) The cross-reactivity of the human antibodies M048-D01-hIgG1 and M048-D01-hIgG1-b of the present application was determined using the parental Fab fragment M048-D01 (comprising Vh: SEQ ID NO: 21 and Vl: SEQ ID NO: 22).
(§2) All of the variants took the form of Fc fusion proteins in carrier-free preparations. The proteins were biotinylated according to manufacturer instructions, using a 2-fold molar excess of biotin-LC-NHS (Pierce; Cat. No. 21347) and desalted using Zeba desalting columns (Pierce; Cat. No. 89889). For the ELISA, 96-well plates pretreated with streptavidin (Pierce, 15500) were loaded overnight at 4° C. with 1 μg/ml biotinylated protein. Wells which had been loaded with biotinylated TRAIL-Fc served as a reference. The next day the plates were washed 3× with PBST (1×PBS admixed with 0.05% Tween 20 (Sigma, P7949)), treated with blocking buffer (PBST admixed with 3% BSA (Sigma A4503)), and again washed three times with PBST. 100 μl of the purified Fab (1 μg/ml) were added, and incubation was carried out at room temperature for 1 hour. […] The colour reaction was monitored at 450 nm in a plate reader (Tecan). The signal strengths of the wells containing TRAIL-Fc were used as background values, and the signal-to-background ratios were calculated as summarized in Table 3.

hFGFR2β-Fc (IIIc) = format: binding, Human
Experimental: as §1, §2

hFGFR2β-Fc (IIIb) = molecular target: T1, hFGFR2β-Fc (IIIb) (Homo sapiens, UniProt P21802); format: binding
T1 construct: purchased RnD Systems 665-FR
Experimental: as §1
(§3) All of the variants took the form of Fc fusion proteins in carrier-free preparations. The proteins were biotinylated according to manufacturer instructions, using a 2-fold molar excess of biotin-LC-NHS (Pierce; Cat. No. 21347) and desalted using Zeba desalting columns (Pierce; Cat. No. 89889). For the ELISA, 96-well plates pretreated with streptavidin (Pierce, 15500) were loaded overnight at 4° C. with 1 μg/ml biotinylated protein. Wells which had been loaded with biotinylated TRAIL-Fc served as a reference. The next day the plates were washed 3× with PBST (1×PBS admixed with 0.05% Tween 20 (Sigma, P7949)), treated with blocking buffer (PBST admixed with 3% BSA (Sigma A4503)), and again washed three times with PBST. 100 μl of the purified Fab (1 μg/ml) were added, and incubation was carried out at room temperature for 1 hour. After threefold washing with PBST, an HRP-coupled anti-hIgG (Fab-specific) (diluted 1:2500, Sigma, A0293) was added, and incubation took place at room temperature for 1 hour. The colour reaction was activated by addition of 50 μl of TMB (Invitrogen, 2023) and halted after 5-15 minutes by addition of 50 μl of H2SO4 (Merck, 1120801000). The colour reaction was monitored at 450 nm in a plate reader (Tecan). The signal strengths of the wells containing TRAIL-Fc were used as background values, and the signal-to-background ratios were calculated as summarized in Table 3.

mFGFR3-Fc (IIIc) = molecular target: T2, mFGFR3-Fc (IIIc) (Mus musculus, UniProt Q61851); format: binding
T2 construct: purchased RnD Systems 710-MF
T2 sequence (Q61851 21-369 limits assumed): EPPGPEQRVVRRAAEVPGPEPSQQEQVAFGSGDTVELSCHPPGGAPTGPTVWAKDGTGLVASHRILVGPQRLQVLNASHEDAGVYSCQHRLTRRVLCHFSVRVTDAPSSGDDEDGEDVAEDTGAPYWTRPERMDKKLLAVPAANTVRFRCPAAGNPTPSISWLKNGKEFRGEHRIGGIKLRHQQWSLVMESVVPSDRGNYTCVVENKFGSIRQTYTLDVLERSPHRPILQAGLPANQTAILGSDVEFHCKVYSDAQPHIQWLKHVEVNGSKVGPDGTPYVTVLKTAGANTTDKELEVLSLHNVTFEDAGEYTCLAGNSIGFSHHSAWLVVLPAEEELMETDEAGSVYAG
Experimental: as §1, §3

hFGFR4-Fc = molecular target: T3, hFGFR4-Fc (Homo sapiens, UniProt P22455); format: binding
T3 construct: purchased RnD Systems 685-MF
Experimental: as §1, §3

hFGFR2α-Fc (IIIb) = molecular target: T4, hFGFR2α-Fc (IIIb) (Homo sapiens, UniProt P21802); format: binding
T4 construct: purchased RnD Systems 663-FR
Experimental: as §1, §3

mFGFR2β-Fc (IIIb) = molecular target: T5, mFGFR2β-Fc (IIIb) (Mus musculus, UniProt P21803); format: binding
T5 construct: purchased RnD Systems 708-MF
Experimental: as §1, §3

hFGFR3-Fc (IIIc) = molecular target: T6, hFGFR3-Fc (IIIc) (Homo sapiens, UniProt P22607); format: binding
T6 construct: purchased RnD Systems 766-FR
T6 sequence (P22607 23-375 limits assumed): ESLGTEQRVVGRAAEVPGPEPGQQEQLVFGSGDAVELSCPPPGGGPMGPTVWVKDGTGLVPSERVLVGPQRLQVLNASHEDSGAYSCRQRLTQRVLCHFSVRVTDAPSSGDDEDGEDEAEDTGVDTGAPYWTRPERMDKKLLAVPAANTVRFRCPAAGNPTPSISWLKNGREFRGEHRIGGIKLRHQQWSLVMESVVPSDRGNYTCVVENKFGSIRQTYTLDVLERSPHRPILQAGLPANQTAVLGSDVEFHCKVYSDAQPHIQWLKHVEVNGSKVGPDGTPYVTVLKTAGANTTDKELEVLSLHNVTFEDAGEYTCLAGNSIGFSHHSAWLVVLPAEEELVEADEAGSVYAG
Experimental: as §1, §3

hFGFR1β-Fc (IIIc) = molecular target: T7, hFGFR1β-Fc (IIIc) (Homo sapiens, UniProt P11362); format: binding
T7 construct: purchased RnD Systems 661-FR
Experimental: as §1, §3

hFGFR3-Fc (IIIb) = molecular target: T8, hFGFR3-Fc (IIIb) (Homo sapiens, UniProt P22607); format: binding
T8 construct: purchased RnD Systems 1264-FR
Experimental: as §1, §3

mFGFR2β-Fc (IIIc) = format: binding, Mouse
Experimental: as §1, §2

T5 sequence (P21803 22-707 isoform P21803-2 limits assumed): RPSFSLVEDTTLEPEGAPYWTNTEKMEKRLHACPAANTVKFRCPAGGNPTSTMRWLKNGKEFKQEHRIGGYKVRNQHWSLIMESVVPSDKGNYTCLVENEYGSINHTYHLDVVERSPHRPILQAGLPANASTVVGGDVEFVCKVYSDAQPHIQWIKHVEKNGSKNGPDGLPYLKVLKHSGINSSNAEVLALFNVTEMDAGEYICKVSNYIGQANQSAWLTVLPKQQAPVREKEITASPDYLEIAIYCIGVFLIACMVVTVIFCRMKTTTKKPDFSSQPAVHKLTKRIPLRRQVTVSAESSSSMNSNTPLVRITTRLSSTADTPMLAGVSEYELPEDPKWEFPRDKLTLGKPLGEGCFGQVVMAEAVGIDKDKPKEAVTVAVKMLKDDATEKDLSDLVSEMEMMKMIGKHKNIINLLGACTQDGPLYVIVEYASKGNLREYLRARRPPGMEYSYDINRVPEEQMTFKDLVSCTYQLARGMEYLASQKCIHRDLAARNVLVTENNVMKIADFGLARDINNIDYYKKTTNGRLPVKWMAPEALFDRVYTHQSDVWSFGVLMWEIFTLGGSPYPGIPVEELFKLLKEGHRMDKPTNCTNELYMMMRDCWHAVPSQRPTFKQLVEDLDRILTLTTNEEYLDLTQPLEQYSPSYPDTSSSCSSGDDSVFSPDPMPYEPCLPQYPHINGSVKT
T1 sequence (P21802 22-680 isoform P21802-22 limits assumed): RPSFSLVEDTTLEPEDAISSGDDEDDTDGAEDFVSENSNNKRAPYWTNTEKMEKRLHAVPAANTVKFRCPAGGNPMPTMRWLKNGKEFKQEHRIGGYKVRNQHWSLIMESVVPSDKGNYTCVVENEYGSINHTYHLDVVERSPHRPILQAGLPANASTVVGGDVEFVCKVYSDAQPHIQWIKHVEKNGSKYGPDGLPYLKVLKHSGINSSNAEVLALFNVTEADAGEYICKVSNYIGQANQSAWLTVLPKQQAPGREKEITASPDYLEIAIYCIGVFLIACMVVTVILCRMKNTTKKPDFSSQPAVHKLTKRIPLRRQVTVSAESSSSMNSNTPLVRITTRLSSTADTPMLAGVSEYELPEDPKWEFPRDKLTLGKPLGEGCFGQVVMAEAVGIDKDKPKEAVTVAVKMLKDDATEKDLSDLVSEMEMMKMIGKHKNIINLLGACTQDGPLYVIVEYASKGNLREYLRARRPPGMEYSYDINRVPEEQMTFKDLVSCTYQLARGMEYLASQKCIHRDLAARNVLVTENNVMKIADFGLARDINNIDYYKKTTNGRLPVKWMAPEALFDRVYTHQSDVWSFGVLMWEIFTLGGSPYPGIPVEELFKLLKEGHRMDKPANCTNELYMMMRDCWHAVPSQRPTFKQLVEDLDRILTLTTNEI
T8 sequence (P22607 23-808 isoform P22607-2 limits assumed): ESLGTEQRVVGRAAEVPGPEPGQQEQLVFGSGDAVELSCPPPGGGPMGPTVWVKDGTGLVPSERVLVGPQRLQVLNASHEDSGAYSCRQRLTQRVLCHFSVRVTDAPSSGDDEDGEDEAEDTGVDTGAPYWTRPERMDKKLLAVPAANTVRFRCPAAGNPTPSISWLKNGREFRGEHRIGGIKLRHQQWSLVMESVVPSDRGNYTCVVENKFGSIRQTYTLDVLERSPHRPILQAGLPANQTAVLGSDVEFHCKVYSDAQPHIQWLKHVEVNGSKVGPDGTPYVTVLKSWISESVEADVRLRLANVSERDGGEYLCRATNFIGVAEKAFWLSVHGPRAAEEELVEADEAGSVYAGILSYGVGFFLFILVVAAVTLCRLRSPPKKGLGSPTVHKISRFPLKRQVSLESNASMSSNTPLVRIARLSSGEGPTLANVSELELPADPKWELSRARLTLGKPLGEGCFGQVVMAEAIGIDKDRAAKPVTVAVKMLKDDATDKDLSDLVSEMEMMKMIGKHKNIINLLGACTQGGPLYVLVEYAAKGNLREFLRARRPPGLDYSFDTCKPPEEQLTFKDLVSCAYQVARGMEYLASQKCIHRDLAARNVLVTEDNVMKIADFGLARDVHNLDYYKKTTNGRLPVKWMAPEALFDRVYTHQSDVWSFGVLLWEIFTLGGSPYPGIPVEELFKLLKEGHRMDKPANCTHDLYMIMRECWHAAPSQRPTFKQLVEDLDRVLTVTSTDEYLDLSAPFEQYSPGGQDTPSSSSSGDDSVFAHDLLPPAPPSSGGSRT
T4 sequence (P21802 22-822 isoform P21802-3 limits assumed): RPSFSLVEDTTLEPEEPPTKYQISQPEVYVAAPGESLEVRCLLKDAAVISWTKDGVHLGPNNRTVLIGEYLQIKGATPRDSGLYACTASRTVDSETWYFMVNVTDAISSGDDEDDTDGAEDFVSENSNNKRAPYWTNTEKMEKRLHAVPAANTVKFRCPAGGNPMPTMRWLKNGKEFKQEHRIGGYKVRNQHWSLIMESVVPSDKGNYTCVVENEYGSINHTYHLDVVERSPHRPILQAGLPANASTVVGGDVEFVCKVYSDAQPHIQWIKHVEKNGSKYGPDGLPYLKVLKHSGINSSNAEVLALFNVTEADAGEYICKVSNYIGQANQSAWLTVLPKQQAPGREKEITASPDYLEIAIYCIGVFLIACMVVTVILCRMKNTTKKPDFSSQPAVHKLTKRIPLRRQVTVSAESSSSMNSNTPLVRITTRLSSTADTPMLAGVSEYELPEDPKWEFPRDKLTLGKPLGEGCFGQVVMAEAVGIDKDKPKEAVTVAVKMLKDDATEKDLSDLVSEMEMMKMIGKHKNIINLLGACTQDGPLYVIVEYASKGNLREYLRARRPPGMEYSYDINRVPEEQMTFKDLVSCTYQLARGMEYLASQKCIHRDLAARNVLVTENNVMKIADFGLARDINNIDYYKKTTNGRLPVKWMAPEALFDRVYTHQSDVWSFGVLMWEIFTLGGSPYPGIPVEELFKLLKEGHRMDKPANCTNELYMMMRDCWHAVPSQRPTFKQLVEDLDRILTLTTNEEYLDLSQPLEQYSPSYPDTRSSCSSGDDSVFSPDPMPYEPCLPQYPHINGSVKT
T7 sequence (P11362 22-733 isoform P11362-3 limits assumed): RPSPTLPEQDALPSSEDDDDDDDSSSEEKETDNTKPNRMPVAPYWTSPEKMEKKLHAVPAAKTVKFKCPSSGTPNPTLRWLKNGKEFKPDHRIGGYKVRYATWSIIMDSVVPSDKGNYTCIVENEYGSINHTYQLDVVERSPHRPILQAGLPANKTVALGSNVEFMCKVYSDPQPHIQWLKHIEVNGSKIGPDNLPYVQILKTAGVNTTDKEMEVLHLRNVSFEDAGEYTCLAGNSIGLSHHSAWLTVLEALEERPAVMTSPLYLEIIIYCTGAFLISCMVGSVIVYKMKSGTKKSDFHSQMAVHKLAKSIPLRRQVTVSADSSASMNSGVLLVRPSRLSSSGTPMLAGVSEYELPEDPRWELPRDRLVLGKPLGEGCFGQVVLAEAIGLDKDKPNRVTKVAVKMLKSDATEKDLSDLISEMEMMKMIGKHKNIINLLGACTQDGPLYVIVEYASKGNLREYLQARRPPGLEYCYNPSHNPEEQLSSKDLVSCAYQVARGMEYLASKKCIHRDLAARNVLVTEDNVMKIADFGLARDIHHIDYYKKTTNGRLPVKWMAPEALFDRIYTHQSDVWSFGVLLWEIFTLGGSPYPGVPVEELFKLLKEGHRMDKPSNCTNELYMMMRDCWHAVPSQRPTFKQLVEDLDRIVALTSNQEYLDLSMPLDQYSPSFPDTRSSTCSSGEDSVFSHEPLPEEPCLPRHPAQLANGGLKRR

B1: M048-D01 (antibody, V domains shown)
VH: EVQLLESGGGLVQPGGSLRLSCAASGFTFSSYAMSWVRQAPGKGLEWVSAISGSGTSTYYADSVKGRFTISRDNSKNTLYLQMNSLRAEDTAVYYCARVRYNWNHGDWFDPWGQGTLVTVSS
VL: QSVLTQPPSASGTPGQRVTISCSGSSSNIGNNYVSWYQQLPGTAPKLLIYENYNRPAGVPDRFSGSKSGTSASLAISGLRSEDEADYYCSSWDDSLNYWVFGGGTKLTVL
Signal-to-background ratio, hFGFR1β-Fc (IIIb) (hFGFR1β-Fc (IIIb)): 0 (0: <2)
Signal-to-background ratio, hFGFR2β-Fc (IIIc) (hFGFR2β-Fc (IIIc)): +++ (+++: >5)
Signal-to-background ratio, hFGFR2β-Fc (IIIb) (hFGFR2β-Fc (IIIb)): +++ (+++: >5)
Signal-to-background ratio, mFGFR3-Fc (IIIc) (mFGFR3-Fc (IIIc)): 0 (0: <2)
Signal-to-background ratio, hFGFR4-Fc (hFGFR4-Fc): 0 (0: <2)
Signal-to-background ratio, hFGFR2α-Fc (IIIb) (hFGFR2α-Fc (IIIb)): +++ (+++: >5)
Signal-to-background ratio, mFGFR2β-Fc (IIIb) (mFGFR2β-Fc (IIIb)): +++ (+++: >5)
Signal-to-background ratio, hFGFR3-Fc (IIIc) (hFGFR3-Fc (IIIc)): 0 (0: <2)
Signal-to-background ratio, hFGFR1β-Fc (IIIc) (hFGFR1β-Fc (IIIc)): 0 (0: <2)
Signal-to-background ratio, hFGFR3-Fc (IIIb) (hFGFR3-Fc (IIIb)): 0 (0: <2)
Signal-to-background ratio, mFGFR2β-Fc (IIIc) (mFGFR2β-Fc (IIIc)): +++ (+++: >5)
